Test results: article PMC9986279, “Biochemical and genetic examination of two aminotransferases from the hyperthermophilic archaeon Thermococcus kodakarensis” (Frontiers in Microbiology, 2023)

What was measured:
[1] = molecular target: T1, TK2268 protein (Thermococcus kodakarensis, UniProt Q5JHU0); experiment: aminotransferase activity with and without added PLP; type: biochemical; details: 20 μM PLP, 50 mM HEPES pH 7.4, 80°C
T1 construct: full length, C-terminal His6-tag kept, expressed in T. kodakarensis KPD2; monomer 45,116 Da; dimer (98 kDa) that may assemble to octamer (327 kDa)

[2] = molecular target: T2, TK0548 protein (Thermococcus kodakarensis, UniProt Q5JF51); experiment: as above; type: biochemical; details: 20 μM PLP, 50 mM HEPES pH 7.4, 80°C
T2 construct: full length, no tag (own stop codon in primer), pET21a(+), E. coli BL21-CodonPlus(DE3)-RIL; monomer 43,608 Da, dimer (85 kDa)
T2 sequence (Q5JF51 1-389): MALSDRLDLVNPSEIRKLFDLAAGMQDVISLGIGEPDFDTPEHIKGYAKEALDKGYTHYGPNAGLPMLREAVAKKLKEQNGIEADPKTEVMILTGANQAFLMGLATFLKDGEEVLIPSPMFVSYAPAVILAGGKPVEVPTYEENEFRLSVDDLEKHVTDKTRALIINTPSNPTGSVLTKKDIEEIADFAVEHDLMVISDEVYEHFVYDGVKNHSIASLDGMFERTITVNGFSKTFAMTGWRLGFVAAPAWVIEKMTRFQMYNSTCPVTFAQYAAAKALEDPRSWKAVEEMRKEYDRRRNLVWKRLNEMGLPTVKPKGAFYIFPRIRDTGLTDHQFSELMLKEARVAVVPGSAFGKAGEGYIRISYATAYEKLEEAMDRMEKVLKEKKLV

[3] = substrate: N[C@@H](CC(=O)O)C(=O)O; experiment: purified protein; details: 10 mM pyruvate, 20 μM PLP, 50 mM HEPES pH 7.4, 80°C
[4] = substrate: CC(=O)C(=O)O; experiment: aminotransferase assay, Ala formed quantified by HPLC after o-phthalaldehyde derivatization; type: biochemical, Thermococcus kodakarensis; details: 50 mM Leu, 20 μM PLP, 50 mM HEPES pH 7.4, 80°C
Excerpt: (§1) aminotransferase assay, Ala formed quantified by HPLC after o-phthalaldehyde derivatization on TK2268 protein

[5] = substrate: N[C@@H](CCC(=O)O)C(=O)O; experiment: as above; type: biochemical, Thermococcus kodakarensis; details: 10 mM pyruvate, 20 μM PLP, 50 mM HEPES pH 7.4, 80°C
Excerpt: as §1

[6] = substrate: CC(C)C[C@H](N)C(=O)O; experiment: as above; type: biochemical, Thermococcus kodakarensis; details: 10 mM pyruvate, 20 μM PLP, 50 mM HEPES pH 7.4, 80°C
Excerpt: as §1

[7] = substrate: N[C@@H](Cc1ccc(O)cc1)C(=O)O; experiment: aminotransferase assay, Glu formed quantified by HPLC after o-phthalaldehyde derivatization; type: biochemical, Thermococcus kodakarensis; details: 10 mM 2-oxoglutarate, 20 μM PLP, 50 mM HEPES pH 7.4, 80°C
Excerpt: (§2) aminotransferase assay, Glu formed quantified by HPLC after o-phthalaldehyde derivatization on TK2268 protein

[8] = substrate: O=C(O)CCC(=O)C(=O)O; experiment: as above; type: biochemical, Thermococcus kodakarensis; details: 50 mM Leu, 20 μM PLP, 50 mM HEPES pH 7.4, 80°C
Excerpt: as §2

[9] = substrate: CC(=O)C(=O)O; experiment: aminotransferase assay, Ala formed quantified by HPLC after o-phthalaldehyde derivatization; type: biochemical, Thermococcus kodakarensis; details: 10 mM Phe, 20 μM PLP, 50 mM HEPES pH 7.4, 80°C
Excerpt: aminotransferase assay, Ala formed quantified by HPLC after o-phthalaldehyde derivatization on TK0548 protein

[10] = substrate: N[C@@H](Cc1ccccc1)C(=O)O; experiment: aminotransferase assay, Glu formed quantified by HPLC after o-phthalaldehyde derivatization; type: biochemical, Thermococcus kodakarensis; details: 10 mM 2-oxoglutarate, 20 μM PLP, 50 mM HEPES pH 7.4, 80°C
Excerpt: (§3) aminotransferase assay, Glu formed quantified by HPLC after o-phthalaldehyde derivatization on TK0548 protein

[11] = substrate: N[C@@H](Cc1c[nH]cn1)C(=O)O; experiment: as above; type: biochemical, Thermococcus kodakarensis; details: 10 mM 2-oxoglutarate, 20 μM PLP, 50 mM HEPES pH 7.4, 80°C
Excerpt: as §3

[12] = substrate: N[C@@H](Cc1ccc(O)cc1)C(=O)O; experiment: as above; type: biochemical, Thermococcus kodakarensis; details: 10 mM 2-oxoglutarate, 20 μM PLP, 50 mM HEPES pH 7.4, 80°C; remark: listed apart in the source
Excerpt: as §3

[13] = substrate: N[C@@H](Cc1c[nH]c2ccccc12)C(=O)O; experiment: as above; type: biochemical, Thermococcus kodakarensis; details: 10 mM 2-oxoglutarate, 20 μM PLP, 50 mM HEPES pH 7.4, 80°C
Excerpt: as §3

[14] = substrate: CSCC[C@H](N)C(=O)O; experiment: as above; type: biochemical, Thermococcus kodakarensis; details: 10 mM 2-oxoglutarate, 20 μM PLP, 50 mM HEPES pH 7.4, 80°C
Excerpt: as §3

[15] = substrate: O=C(O)CCC(=O)C(=O)O; experiment: as above; type: biochemical, Thermococcus kodakarensis; details: 10 mM Phe, 20 μM PLP, 50 mM HEPES pH 7.4, 80°C
Excerpt: as §3

In the case of `Cc1ncc(COP(=O)(O)O)c(C=O)c1O` [pyridoxal 5′-phosphate], the “aminotransferase activity with and without added PLP” value [1] is reported as “suggesting that the TK0548 and TK2268 proteins are PLP-dependent aminotransferases” and the “aminotransferase activity with and without added PLP” value [2] is reported as “suggesting that the TK0548 and TK2268 proteins are PLP-dependent aminotransferases”.

B1: TK2268 protein (Thermococcus kodakarensis KOD1) (protein)
chain: MRYKKRKYFMAGRINILQRSKIRELFEKASKMENVISLGIGEPDFDTPEVIKEAAKRAIDEGYTHYTPNAGIPEFREAIAEYYKEFYNVDVDMNNIIVTAGAYEATYLAFESILEQGDDVIIPDPAFVCYVEDAKIAEAGIIRIPLREENKFRIDPDELLEAITKRTRMIVMNYPNNPTGAIMKKDVAKAIADIAQDYNIYILSDEPYEHFLYEGARHHPMIKYAPDNTILANSFSKTFAMTGWRLGFAIAPEQVIRDMIKLHAYVIGNVTSFIQIAGITALRDKRSWEAVERMRQVYDERRKLVLKYLNDMPHITPFRPKGAFYIWAKIDPELDMTSEDFAEWLLENAGVVVIPGTAFGRQGEGWIRISYATEKEKLIEAMERMKEALSKL
notes: full length, C-terminal His6-tag kept, expressed in T. kodakarensis KPD2; monomer 45,116 Da; dimer (98 kDa) that may assemble to octamer (327 kDa)
B1 showed a Km [3] of 2140 ± 220 µM, a Vmax [3] of 5.42 µmol/min/mg and a kcat [3] of 4.07 s⁻¹. It also gave a kcat/Km [3] of 1900 M⁻¹ s⁻¹, a Km [4] of 2720 ± 350 µM and a Vmax [4] of 3.76 µmol/min/mg. It also gave a kcat [4] of 2.83 ± 0.16 s⁻¹, a kcat/Km [4] of 1040 M⁻¹ s⁻¹ and a Km [5] of 2170 ± 270 µM. The Vmax [5] was 7.42 µmol/min/mg, the kcat [5] was 5.57 ± 0.23 s⁻¹ and the kcat/Km [5] was 2570 M⁻¹ s⁻¹. The Km [6] was 36300 ± 4300 µM, the Vmax [6] was 4.68 µmol/min/mg and the kcat [6] was 3.52 ± 0.23 s⁻¹. The kcat/Km [6] was 100 M⁻¹ s⁻¹, the Km [7] was 1450 ± 260 µM and the Vmax [7] was 0.34 µmol/min/mg. It also gave a kcat [7] of 0.26 ± 0.02 s⁻¹, a kcat/Km [7] of 180 M⁻¹ s⁻¹ and a Km [8] of 190 ± 30 µM. It also gave a Vmax [8] of 4.45 µmol/min/mg, a kcat [8] of 3.35 ± 0.15 s⁻¹ and a kcat/Km [8] of 17600 M⁻¹ s⁻¹.

B2: TK0548 protein (Thermococcus kodakarensis KOD1) (protein)
chain: MALSDRLDLVNPSEIRKLFDLAAGMQDVISLGIGEPDFDTPEHIKGYAKEALDKGYTHYGPNAGLPMLREAVAKKLKEQNGIEADPKTEVMILTGANQAFLMGLATFLKDGEEVLIPSPMFVSYAPAVILAGGKPVEVPTYEENEFRLSVDDLEKHVTDKTRALIINTPSNPTGSVLTKKDIEEIADFAVEHDLMVISDEVYEHFVYDGVKNHSIASLDGMFERTITVNGFSKTFAMTGWRLGFVAAPAWVIEKMTRFQMYNSTCPVTFAQYAAAKALEDPRSWKAVEEMRKEYDRRRNLVWKRLNEMGLPTVKPKGAFYIFPRIRDTGLTDHQFSELMLKEARVAVVPGSAFGKAGEGYIRISYATAYEKLEEAMDRMEKVLKEKKLV
notes: full length, no tag (own stop codon in primer), pET21a(+), E. coli BL21-CodonPlus(DE3)-RIL; monomer 43,608 Da, dimer (85 kDa)
In the case of B2, the Km [9] is reported as 48000 ± 5000 µM, the Vmax [9] is reported as 137 µmol/min/mg and the kcat [9] is reported as 100 ± 7 s⁻¹. For the same molecule, the kcat/Km [9] was 2070 M⁻¹ s⁻¹, the Km [10] was 670 ± 60 µM and the Vmax [10] was 483 µmol/min/mg. The kcat [10] was 351 ± 10 s⁻¹, the kcat/Km [10] was 524000 M⁻¹ s⁻¹ and the Km [11] was 4400 ± 400 µM. It also gave a Vmax [11] of 179 µmol/min/mg, a kcat [11] of 130 ± 6 s⁻¹ and a kcat/Km [11] of 29600 M⁻¹ s⁻¹. For the same molecule, the Km [12] was 1400 ± 200 µM, the Vmax [12] was 419 µmol/min/mg and the kcat [12] was 305 ± 19 s⁻¹. It also gave a kcat/Km [12] of 218000 M⁻¹ s⁻¹, a Km [13] of 1100 ± 100 µM and a Vmax [13] of 359 µmol/min/mg. It also gave a kcat [13] of 261 ± 10 s⁻¹, a kcat/Km [13] of 237000 M⁻¹ s⁻¹ and a Km [14] of 64000 ± 9000 µM. It also gave a Vmax [14] of 169 µmol/min/mg, a kcat [14] of 123 ± 14 s⁻¹ and a kcat/Km [14] of 1920 M⁻¹ s⁻¹. For the same molecule, the Km [15] was 1500 ± 200 µM, the Vmax [15] was 334 µmol/min/mg and the kcat [15] was 243 ± 10 s⁻¹. For the same molecule, the kcat/Km [15] was 162000 M⁻¹ s⁻¹.
